Results as given in patent US20250262210A1 (TRUSTEES OF COLUMBIA UNIVERSITY IN THE CITY OF NEW YORK, published 2025).

What was measured:
LZTR1 R810W-FLAG = molecular target: T1, LZTR1 R810W-FLAG (human, UniProt Q8N653 1-840); experiment: IP/MS, LZTR1 R810W-FLAG, U87
T1 construct: Stably expressed in U87 cells by lentivirus; also called LZTR1-FLAG-R810W; LZTR1 RW; not shown: FLAG tag
T1 sequence (looked up): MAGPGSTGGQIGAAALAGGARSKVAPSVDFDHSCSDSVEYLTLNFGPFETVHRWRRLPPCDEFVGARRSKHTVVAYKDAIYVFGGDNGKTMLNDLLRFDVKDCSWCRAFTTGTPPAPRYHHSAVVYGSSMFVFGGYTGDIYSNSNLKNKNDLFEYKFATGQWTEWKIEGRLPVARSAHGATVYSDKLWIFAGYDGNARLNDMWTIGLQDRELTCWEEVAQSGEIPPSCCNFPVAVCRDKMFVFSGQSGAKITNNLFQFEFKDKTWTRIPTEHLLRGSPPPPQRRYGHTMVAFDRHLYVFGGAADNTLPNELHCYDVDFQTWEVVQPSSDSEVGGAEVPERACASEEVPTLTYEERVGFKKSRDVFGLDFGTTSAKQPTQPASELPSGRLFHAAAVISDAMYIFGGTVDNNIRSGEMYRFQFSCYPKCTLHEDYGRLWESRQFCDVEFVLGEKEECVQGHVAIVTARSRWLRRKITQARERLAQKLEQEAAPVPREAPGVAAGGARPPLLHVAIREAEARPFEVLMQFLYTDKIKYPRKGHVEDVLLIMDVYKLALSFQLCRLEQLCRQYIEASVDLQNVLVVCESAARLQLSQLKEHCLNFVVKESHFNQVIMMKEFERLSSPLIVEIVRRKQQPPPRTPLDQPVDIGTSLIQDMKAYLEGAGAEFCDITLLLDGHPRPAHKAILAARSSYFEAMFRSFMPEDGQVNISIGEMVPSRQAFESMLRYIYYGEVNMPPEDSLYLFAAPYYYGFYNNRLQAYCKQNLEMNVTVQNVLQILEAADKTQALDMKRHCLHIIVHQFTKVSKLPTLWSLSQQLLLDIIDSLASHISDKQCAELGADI
How it was run: (§1)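 Extracted peptides in 3% acetonitrile/0.1% formic acid ran on a 50 cm C18 column into an Orbitrap Fusion, with MaxQuant identification and spectral counting.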

LZTR1-FLAG = molecular target: T2, LZTR1-FLAG (human, UniProt Q8N653 1-840); experiment: IP/MS, LZTR1 wild type-FLAG, U87
T2 construct: Expressed in HEK 293T, HeLa or U87 cells; used as cell lysate; also called LZTR1 wild type-FLAG; LZTR1 WT; not shown: FLAG tag at the C-terminus
T2 sequence (looked up): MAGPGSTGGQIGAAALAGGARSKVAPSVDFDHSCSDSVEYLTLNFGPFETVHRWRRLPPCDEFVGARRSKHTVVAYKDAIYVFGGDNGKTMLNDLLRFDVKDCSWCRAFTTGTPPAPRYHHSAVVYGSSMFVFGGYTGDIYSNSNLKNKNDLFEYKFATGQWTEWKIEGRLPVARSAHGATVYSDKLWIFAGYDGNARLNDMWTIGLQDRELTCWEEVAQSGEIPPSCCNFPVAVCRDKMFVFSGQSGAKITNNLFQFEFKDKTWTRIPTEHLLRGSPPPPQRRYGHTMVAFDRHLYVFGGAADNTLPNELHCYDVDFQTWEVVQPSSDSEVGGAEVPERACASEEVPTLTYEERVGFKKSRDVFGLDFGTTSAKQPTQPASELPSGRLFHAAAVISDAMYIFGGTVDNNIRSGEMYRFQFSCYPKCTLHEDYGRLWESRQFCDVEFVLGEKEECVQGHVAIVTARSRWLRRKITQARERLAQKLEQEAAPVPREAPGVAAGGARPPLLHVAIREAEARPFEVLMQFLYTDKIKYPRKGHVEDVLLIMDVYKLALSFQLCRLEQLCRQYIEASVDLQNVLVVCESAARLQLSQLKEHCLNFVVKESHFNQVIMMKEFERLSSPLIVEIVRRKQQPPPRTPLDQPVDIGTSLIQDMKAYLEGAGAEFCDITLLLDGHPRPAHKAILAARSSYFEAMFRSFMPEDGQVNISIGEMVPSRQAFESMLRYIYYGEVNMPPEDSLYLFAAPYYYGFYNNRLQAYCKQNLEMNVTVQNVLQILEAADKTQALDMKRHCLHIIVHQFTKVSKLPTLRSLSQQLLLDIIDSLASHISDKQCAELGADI
How it was run: as §1

Binder | binding result (LZTR1 R810W-FLAG) | binding result (LZTR1-FLAG)
SHCBP1 (other, human, UniProt Q8NEM2 2-672, looked up) ADGSLTGGGLEAAAMAPERMGWAVEQELASLEKGLFQDEDSCSDCSYRDKPGSSLQSFMPEGKTFFPEIFQTNQLLFYERFRAYQDYILADCKASEVQEFTAEFLEKVLEPSGWRAVWHTNVFKVLVEITDVDFAALKAVVRLAEPYLCDSQVSTFTMECMKELLDLKEHRLPLQELWVVFDDSGVFDQTALAIEHVRFFYQNIWRSWDEEEEDEYDYFVRCVEPRLRLHYDILEDRVPSGLIVDYHNLLSQCEESYRKFLNLRSSLSNCNSDSEQENISMVEGLKLYSEMEQLKQKLKLIENPLLRYVFGYQKNSNIQAKGVRSSGQKITHVVSSTMMAGLLRSLLTDRLCQEPGEEEREIQFHSDPLSAINACFEGDTVIVCPGHYVVHGTFSIADSIELEGYGLPDDIVIEKRGKGDTFVDCTGADIKISGIKFVQHDAVEGILIVHRGKTTLENCVLQCETTGVTVRTSAEFLMKNSDLYGAKGAGIEIYPGSQCTLSDNGIHHCKEGILIKDFLDEHYDIPKISMVNNIIHNNEGYGVVLVKPTIFSDLQENAEDGTEENKALKIQTSGEPDVAERVDLEELIECATGKMELCARTDPSEQVEGNCEIVNELIAASTQKGQIKKKRLSELGITQADDNLMSQEMFVGIVGNQFKWNGKGSFGTFLF | binds | binds
SL C39A14 (other, human, UniProt Q15043 31-492, looked up, Printed as SL C39A14; read as SLC39A14) SSLGAPAISAASFLQDLIHRYGEGDSLTLQQLKALLNHLDVGVGRGNVTQHVQGHRNLSTCFSSGDLFTAHNFSEQSRIGSSELQEFCPTILQQLDSRACTSENQENEENEQTEEGRPSAVEVWGYGLLCVTVISLCSLLGASVVPFMKKTFYKRLLLYFIALAIGTLYSNALFQLIPEAFGFNPLEDYYVSKSAVVFGGFYLFFFTEKILKILLKQKNEHHHGHSHYASESLPSKKDQEEGVMEKLQNGDLDHMIPQHCSSELDGKAPMVDEKVIVGSLSVQDLQASQSACYWLKGVRYSDIGTLAWMITLSDGLHNFIDGLAIGASFTVSVFQGISTSVAILCEEFPHELGDFVILLNAGMSIQQALFFNFLSACCCYLGLAFGILAGSHFSANWIFALAGGMFLYISLADMFPEMNEVCQEDERKGSILIPFIIQNLGLLTGFTIMVVLTMYSGQIQIG | binds | binds
SYDE1 (other, human, UniProt Q6ZW31 1-735, looked up) MAEPLLRKTFSRLRGREKLPRKKSDAKERGHPAQRPEPSPPEPEPQAPEGSQAGAEGPSSPEASRSPARGAYLQSLEPSSRRWVLGGAKPAEDTSLGPGVPGTGEPAGEIWYNPIPEEDPRPPAPEPPGPQPGSAESEGLAPQGAAPASPPTKASRTKSPGPARRLSIKMKKLPELRRRLSLRGPRAGRERERAAPAGSVISRYHLDSSVGGPGPAAGPGGTRSPRAGYLSDGDSPERPAGPPSPTSFRPYEVGPAARAPPAALWGRLSLHLYGLGGLRPAPGATPRDLCCLLQVDGEARARTGPLRGGPDFLRLDHTFHLELEAARLLRALVLAWDPGVRRHRPCAQGTVLLPTVFRGCQAQQLAVRLEPQGLLYAKLTLSEQQEAPATAEPRVFGLPLPLLVERERPPGQVPLIIQKCVGQIERRGLRVVGLYRLCGSAAVKKELRDAFERDSAAVCLSEDLYPDINVITGILKDYLRELPTPLITQPLYKVVLEAMARDPPNRVPPTTEGTRGLLSCLPDVERATLTLLLDHLRLVSSFHAYNRMTPQNLAVCFGPVLLPARQAPTRPRARSSGPGLASAVDFKHHIEVLHYLLQSWPDPRLPRQSPDVAPYLRPKRQPPLHLPLADPEVVTRPRGRGGPESPPSNRYAGDWSVCGRDFLPCGRDFLSGPDYDHVTGSDSEDEDEEVGEPRVTGDFEDDFDAPFNPHLNLKDFDALILDLERELSKQINVCL | binds | binds
SMS (other, human, UniProt P52788 2-366, looked up) AAARHSTLDFMLGAKADGETILKGLQSIFQEQGMAESVHTWQDHGYLATYTNKNGSFANLRIYPHGLVLLDLQSYDGDAQGKEEIDSILNKVEERMKELSQDSTGRVKRLPPIVRGGAIDRYWPTADGRLVEYDIDEVVYDEDSPYQNIKILHSKQFGNILILSGDVNLAESDLAYTRAIMGSGKEDYTGKDVLILGGGDGGILCEIVKLKPKMVTMVEIDQMVIDGCKKYMRKTCGDVLDNLKGDCYQVLIEDCIPVLKRYAKEGREFDYVINDLTAVPISTSPEEDSTWEFLRLILDLSMKVLKQDGKYFTQGNCVNLTEALSLYEEQLGRLYCPVEFSKEIVCVPSYLELWVFYTVWKKAKP | binds | binds
SHKBP1 (other, human, UniProt Q8TBC3 2-707, looked up) AAAATAAEGVPSRGPPGEVIHLNVGGKRFSTSRQTLTWIPDSFFSSLLSGRISTLKDETGAIFIDRDPTVFAPILNFLRTKELDPRGVHGSSLLHEAQFYGLTPLVRRLQLREELDRSSCGNVLFNGYLPPPVFPVKRRNRHSLVGPQQLGGRPAPVRRSNTMPPNLGNAGLLGRMLDEKTPPSPSGQPEEPGMVRLVCGHHNWIAVAYTQFLVCYRLKEASGWQLVFSSPRLDWPIERLALTARVHGGALGEHDKMVAAATGSEILLWALQAEGGGSEIGVFHLGVPVEALFFVGNQLIATSHTGRIGVWNAVTKHWQVQEVQPITSYDAAGSFLLLGCNNGSIYYVDVQKFPLRMKDNDLLVSELYRDPAEDGVTALSVYLTPKTSDSGNWIEIAYGTSSGGVRVIVQHPETVGSGPQLFQTFTVHRSPVTKIMLSEKHLISVCADNNHVRTWSVTRFRGMISTQPGSTPLASFKILALESADGHGGCSAGNDIGPYGERDDQQVFIQKVVPSASQLFVRLSSTGQRVCSVRSVDGSPTTAFTVLECEGSRRLGSRPRRYLLTGQANGSLAMWDLTTAMDGLGQAPAGGLTEQELMEQLEHCELAPPAPSAPSWGCLPSPSPRISLTSLHSASSNTSLSGHRGSPSPPQAEARRRGGGSFVERCQELVRSGPDLRRPPTPAPWPSSGLGTPLTPPKMKLNETSF | binds | binds
SMG9 (other, human, UniProt Q9H0W8 2-520, looked up) SESGHSQPGLYGIERRRRWKEPGSGGPQNLSGPGGRERDYIAPWERERRDASEETSTSVMQKTPIILSKPPAERSKQPPPPTAPAAPPAPAPLEKPIVLMKPREEGKGPVAVTGASTPEGTAPPPPAAPAPPKGEKEGQRPTQPVYQIQNRGMGTAAPAAMDPVVGQAKLLPPERMKHSIKLVDDQMNWCDSAIEYLLDQTDVLVVGVLGLQGTGKSMVMSLLSANTPEEDQRTYVFRAQSAEMKERGGNQTSGIDFFITQERIVFLDTQPILSPSILDHLINNDRKLPPEYNLPHTYVEMQSLQIAAFLFTVCHVVIVVQDWFTDLSLYRFLQTAEMVKPSTPSPSHESSSSSGSDEGTEYYPHLVFLQNKARREDFCPRKLRQMHLMIDQLMAHSHLRYKGTLSMLQCNVFPGLPPDFLDSEVNLFLVPFMDSEAESENPPRAGPGSSPLFSLLPGYRGHPSFQSLVSKLRSQVMSMARPQLSHTILTEKNWFHYAARIWDGVRKSSALAEYSRLLA | binds | binds
SPRYD3 (other, human, UniProt Q8NCJ5 1-442, looked up) MRRTRRPRFVLMNKMDDLNLHYRFLNWRRRIREIREVRAFRYQERFKHILVDGDTLSYHGNSGEVGCYVASRPLTKDSNYFEVSIVDSGVRGTIAVGLVPQYYSLDHQPGWLPDSVAYHADDGKLYNGRAKGRQFGSKCNSGDRIGCGIEPVSFDVQTAQIFFTKNGKRVGSTIMPMSPDGLFPAVGMHSLGEEVRLHLNAELGREDDSVMMVDSYEDEWGRLHDVRVCGTLLEYLGKGKSIVDVGLAQARHPLSTRSHYFEVEIVDPGEKCYIALGLARKDYPKNRHPGWSRGSVAYHADDGKIFHGSGVGDPFGPRCYKGDIMGCGIMFPRDYILDSEGDSDDSCDTVILSPTARAVRNVRNVMYLHQEGEEEEEEEEEEEDGEEIEPEHEGRKVVVFFTRNGKIIGKKDAVVPSGGFFPTIGMLSCGEKVKVDLHPLSG | binds | binds
